Test results taken from US7351553B2, “BK beta subunits of Slo family potassium channels” (Icagen, Inc., priority 1999, dated 2008).

What was measured:
[1] = molecular target: T1, Slo-1 (Homo sapiens, UniProt Q12791); test: Whole-cell voltage-clamp of membrane currents in HEK293 cells expressing Slo-1 alone; assay type: cell-based; details: 250 ms depolarizing steps from holding potential -80 mV; for inhibition (block) of membrane currents: CTX 100 nM
T1 construct: expressed in transfected cells; host or cells: HEK293
Experimental: (§1) FIG. 6. Slo-1/BKB3 forms BK type II-like charybdotoxin-(CTX) insensitive channels. Slo-1 (A) or Slo-1+BK beta 3 (B) were expressed in HEK293 cells and membrane currents measured using the whole-cell voltage-clamp technique. […]. In contrast, membrane currents in cells co-expressing Slo-1 and BK beta 3 were TEA (5 mM) sensitive but CTX (100 nM) insensitive (FIG. 6B). Similar recordings were made from 4 cells expressing Slo-1 alone and 6 cells co-expressing Slo-1/BKB3. Scale bars represent InA and 200 ms.

[2] = molecular target: T2, Slo-1/BKB3 (Homo sapiens, UniProt Q12791); test: Whole-cell voltage-clamp of membrane currents in HEK293 cells co-expressing Slo-1 and BK beta 3; assay type: cell-based; details: for sensitivity (block) of membrane currents: CTX 100 nM
T2 construct: expressed in transfected cells; host or cells: HEK293
Experimental: as §1

T1 sequence (Q12791 whole entry): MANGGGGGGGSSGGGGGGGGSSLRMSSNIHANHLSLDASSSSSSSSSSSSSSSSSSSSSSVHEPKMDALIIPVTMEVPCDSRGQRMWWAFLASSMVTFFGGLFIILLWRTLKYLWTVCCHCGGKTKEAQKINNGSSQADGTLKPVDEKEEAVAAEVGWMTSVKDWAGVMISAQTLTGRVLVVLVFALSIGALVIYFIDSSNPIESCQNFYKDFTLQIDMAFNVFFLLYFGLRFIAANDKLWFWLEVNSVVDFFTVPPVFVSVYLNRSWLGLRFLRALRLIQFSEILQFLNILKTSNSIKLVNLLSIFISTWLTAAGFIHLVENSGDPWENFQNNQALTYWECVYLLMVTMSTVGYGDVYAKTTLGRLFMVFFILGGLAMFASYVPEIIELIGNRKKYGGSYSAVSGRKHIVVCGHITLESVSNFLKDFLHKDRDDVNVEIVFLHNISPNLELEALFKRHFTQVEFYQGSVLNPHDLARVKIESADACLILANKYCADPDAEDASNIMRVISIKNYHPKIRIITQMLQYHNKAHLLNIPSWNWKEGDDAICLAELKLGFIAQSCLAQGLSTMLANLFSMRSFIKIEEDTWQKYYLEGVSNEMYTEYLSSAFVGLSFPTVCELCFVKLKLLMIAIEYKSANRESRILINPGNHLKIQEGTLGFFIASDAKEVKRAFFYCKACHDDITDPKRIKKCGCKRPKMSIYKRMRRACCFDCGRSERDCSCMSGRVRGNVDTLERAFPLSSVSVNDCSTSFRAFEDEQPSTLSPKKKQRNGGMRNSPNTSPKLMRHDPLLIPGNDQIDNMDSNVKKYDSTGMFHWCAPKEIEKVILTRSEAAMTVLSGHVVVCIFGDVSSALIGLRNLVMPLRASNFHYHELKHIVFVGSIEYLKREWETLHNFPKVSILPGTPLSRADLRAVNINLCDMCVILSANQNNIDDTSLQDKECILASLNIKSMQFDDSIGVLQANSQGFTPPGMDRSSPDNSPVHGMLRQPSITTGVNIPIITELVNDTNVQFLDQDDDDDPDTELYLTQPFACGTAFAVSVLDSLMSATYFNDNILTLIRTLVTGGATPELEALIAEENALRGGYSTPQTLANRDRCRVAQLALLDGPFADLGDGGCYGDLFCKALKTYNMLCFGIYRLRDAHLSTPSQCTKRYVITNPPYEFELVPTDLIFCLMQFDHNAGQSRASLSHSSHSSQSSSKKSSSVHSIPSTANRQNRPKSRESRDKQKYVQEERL
T2 sequence (Q12791 whole entry): as above
T2 sequence (Q86W47 whole entry partner): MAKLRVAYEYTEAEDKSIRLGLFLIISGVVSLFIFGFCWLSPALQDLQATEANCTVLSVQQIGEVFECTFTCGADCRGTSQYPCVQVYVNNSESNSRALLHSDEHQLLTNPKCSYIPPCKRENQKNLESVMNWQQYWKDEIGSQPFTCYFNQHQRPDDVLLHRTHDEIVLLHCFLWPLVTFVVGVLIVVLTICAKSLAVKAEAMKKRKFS

Compound | inhibition of membrane currents ([1]; TEA 5 mM) | sensitivity of membrane currents ([2]; TEA 5 mM) | inhibition (block) of membrane currents [1] | inhibition (block) of membrane currents ([1]; listed as charybdotoxin) | sensitivity (block) of membrane currents [2] | sensitivity (block) of membrane currents ([2]; listed as charybdotoxin)
CC[N+](CC)(CC)CC [TEA] | strongly inhibited | sensitive |  |  |  | 
charybdotoxin [CTX] |  |  | strongly inhibited | almost completely blocked | insensitive | virtually unblocked
